From publication PMC11142304 come the findings set out here.

The target of test [1] is ADP-ribosylated ubiquitin (ADPR-Ub) (UniProt P0CG48). The test is described as follows: ITC.
Test [2] has as its target LnaB (recombinant, ITC and AUC) (L. pneumophila). The test is described as follows: ITC.

On to MavL_N322A, for which the Kd (usually the free concentration of one partner at which half of the binding sites on the other are occupied at equilibrium, for simple one-to-one binding) in test [1] amounted to 5.96 µM.
As to “Actin (Sangon Biotech, A001041) (from UniProt P60709 1-375) (natural protein)”, the stoichiometry N (as a rule, a count of units in the complex or per binding partner) in test [2] came to 0.84.
